In US20240352098A1 (AstraZeneca / MedImmune, published 2024):
Positions count from the first letter of the chain named. Numbers in names are those of the source.

T1: ClfA (Staphylococcus aureus)
T1 chain: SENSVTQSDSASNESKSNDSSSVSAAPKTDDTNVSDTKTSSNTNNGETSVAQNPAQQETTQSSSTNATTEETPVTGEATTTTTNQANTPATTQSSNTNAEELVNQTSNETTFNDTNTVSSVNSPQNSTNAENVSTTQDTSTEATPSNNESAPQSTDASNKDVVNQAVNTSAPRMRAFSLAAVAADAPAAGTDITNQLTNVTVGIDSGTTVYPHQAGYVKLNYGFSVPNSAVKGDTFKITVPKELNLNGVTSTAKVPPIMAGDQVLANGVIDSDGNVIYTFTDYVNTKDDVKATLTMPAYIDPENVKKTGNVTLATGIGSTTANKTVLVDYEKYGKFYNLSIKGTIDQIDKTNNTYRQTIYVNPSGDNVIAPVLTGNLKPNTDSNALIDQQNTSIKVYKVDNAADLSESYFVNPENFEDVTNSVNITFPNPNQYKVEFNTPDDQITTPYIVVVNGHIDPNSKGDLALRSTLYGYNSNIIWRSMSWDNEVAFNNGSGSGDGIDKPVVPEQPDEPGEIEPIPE

T2: S. aureus clumping factor A, founder genotype ClfA002 (Staphylococcus aureus, UniProt Q99VJ4 221-559)
T2 sequence: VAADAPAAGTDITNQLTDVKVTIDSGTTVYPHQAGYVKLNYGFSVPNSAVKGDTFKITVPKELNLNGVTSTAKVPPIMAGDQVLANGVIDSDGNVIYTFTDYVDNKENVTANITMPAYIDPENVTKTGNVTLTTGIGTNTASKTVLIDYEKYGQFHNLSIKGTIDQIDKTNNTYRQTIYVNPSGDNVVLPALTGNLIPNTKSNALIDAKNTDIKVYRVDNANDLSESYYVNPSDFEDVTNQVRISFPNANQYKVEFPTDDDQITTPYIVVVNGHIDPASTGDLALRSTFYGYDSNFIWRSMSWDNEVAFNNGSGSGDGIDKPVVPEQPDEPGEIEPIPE

B1: N3F (antibody)
heavy: QVQLQESGPGLVKPSETLSLTCTVSGGSIQNSYWSWIRQPPGKGLEWIGYLYSSGRTNYTPSLKSRVTISVDTSKNQFSLKLSSVTAADTAVYYCARTHLGGFHYGGGFWFDPWGQGTLVTVSSASTKGPSVFPLAPSSKSTSGGTAALGCLVKDYFPEPVTVSWNSGALTSGVHTFPAVLQSSGLYSLSSVVTVPSSSLGTQTYICNVNHKPSNTKVDKRVEPKSCDKTHTCPPCPAPELLGGPSVFLFPPKPKDTLMISRTPEVTCVVVDVSHEDPEVKFNWYVDGVEVHNAKTKPREEQYNSTYRVVSVLTVLHQDWLNGKEYKCKVSNKALPAPIEKTISKAKGQPREPQVYTLPPSREEMTKNQVSLTCLVKGFYPSDIAVEWESNGQPENNYKTTPPVLDSDGSFFLYSKLTVDKSRWQQGNVFSCSVMHEACSFHLCQKSLSLSPGK
light: DIQMTQSPSSLSASVGDRVTITCRASQSITSYLNWYQQKPGKAPKLLIYASSSLQSGVPSRFSGSGSGTDFTLTISSLQPEDFATYYCQESYSTPPTFGQGTKVEIKRTVAAPSVFIFPPSDEQLKSGTASVVCLLNNFYPREAKVQWKVDNALQSGNSQESVTEQDSKDSTYSLSSTLTLSKADYEKHKVYACEVTHQGLSSPVTKSFNRGEC
notes: copies: 2 + 2
B2: SAR114 anti-ClfA monoclonal antibody (antibody)
heavy: not shown
light: B1 light
B3: N3Y (antibody)
heavy chain: B1 heavy with F441Y
light chain: B1 light
B4: SAR114-N3 (antibody)
heavy: B1 heavy with F441W
light: B1 light

Key:
ClfA [1] = target: T1, ClfA; test: fibrinogen binding inhibition ('Fg IH' / 'fibrinogen assay'); blocked ligand fibrinogen; sample after 1 week of light exposure; ClfA genotype not stated; printed in both tables
ClfA [2] = target: T1, ClfA; test: fibrinogen binding inhibition ('Fg IH' / 'fibrinogen assay'); blocked ligand fibrinogen; sample after 2 weeks of light exposure; ClfA genotype not stated; printed in both tables
ClfA [3] = target: T1, ClfA; test: fibrinogen binding inhibition ('Fg IH' / 'fibrinogen assay'); blocked ligand fibrinogen; sample before light exposure; ClfA genotype not stated; printed in both tables
[4] = target: T3, S. aureus clumping factor A, founder genotype ClfA004 (Staphylococcus aureus); test: fibrinogen binding inhibition assay (ClfA binding to fibrinogen)
T3 construct: range 221-559

[5] = target: T2, S. aureus clumping factor A, founder …; test: as above
[6] = target: T3, S. aureus clumping factor A, founder …; test: ELISA, inhibition of ClfA binding to immobilised fibrinogen
[7] = target: T2, S. aureus clumping factor A, founder …; test: as above
[8] = target: T3, S. aureus clumping factor A, founder …; test: affinity kinetics, method not named (Table 1)
[9] = target: T2, S. aureus clumping factor A, founder …; test: affinity kinetics, method not named (Table 1)
[10] = target: T3, S. aureus clumping factor A, founder …; test: Biacore, antibody captured, ClfA as sample
[11] = target: T2, S. aureus clumping factor A, founder …; test: Biacore, antibody captured, ClfA as sample
[12] = target: T3, S. aureus clumping factor A, founder …; test: inhibition of ClfA binding to fibrinogen
[13] = target: T2, S. aureus clumping factor A, founder …; test: inhibition of ClfA binding to fibrinogen
[14] = target: T2, S. aureus clumping factor A, founder …
[15] = target: T3, S. aureus clumping factor A, founder …; test: Biacore
[16] = target: T2, S. aureus clumping factor A, founder …; test: Biacore
[17] = target: T3, S. aureus clumping factor A, founder …; test: fibrinogen binding inhibition assay (FIG. 1B)
[18] = target: T2, S. aureus clumping factor A, founder …; test: fibrinogen binding inhibition assay (FIG. 1B)
[19] = target: T3, S. aureus clumping factor A, founder …
ClfA [20] = target: T1, ClfA; test: fibrinogen binding inhibition ('IC50 (ug/ml) fibrinogen assay'); blocked ligand fibrinogen; sample after 2 weeks of light exposure; ClfA genotype not stated; printed only in the right-hand table

| Binder | IC50 (ClfA [1]) | IC50 (ClfA [3]) | Kd [10] | koff [10] | kon [10] | Kd [11] | koff [11] | kon [11] | IC50 [12] | IC50 [13] | other results |
| --- | --- | --- | --- | --- | --- | --- | --- | --- | --- | --- | --- |
| B1 | 19.9 µg/mL | 9.95 µg/mL |  |  |  |  |  |  |  |  | IC50 (ClfA [2]): 27.8 µg/mL |
| B2 |  |  | 0.0209 nM | 6.21e-05 s⁻¹ | 2.97e+06 M⁻¹ s⁻¹ | 0.0477 nM | 0.000182 s⁻¹ | 3.82e+06 M⁻¹ s⁻¹ | 1.72 µg/mL | 2.91 µg/mL | IC50 [4]: 1.63 µg/mL; IC50 [5]: 1.16 µg/mL; IC50 [6]: 8.08 nM; IC50 [7]: 14.3 nM; Kd [8]: 0.00115 nM; koff [8]: 6.46e-06 s⁻¹; kon [8]: 5.62e+06 M⁻¹ s⁻¹; Kd [9]: 0.0448 nM; koff [9]: 9.53e-05 s⁻¹; kon [9]: 2.13e+06 M⁻¹ s⁻¹; IC50 (read off the curve) [14]: ~10000 nM; fold tighter binding (KD) than SAR114-N3 [15]: ~10 fold; fold tighter binding (KD) than SAR114-N3 [16]: ~10 fold; IC50 [17]: ~20000 nM; IC50 [18]: ~20000 nM; IC50 (read off the curve) [19]: ~30000 nM |
| B3 | 9.2 µg/mL | 6.28 µg/mL |  |  |  |  |  |  |  |  | IC50 (ClfA [20]): 12.7 µg/mL |
| B4 |  |  | 0.316 nM | 0.000756 s⁻¹ | 2.39e+06 M⁻¹ s⁻¹ | 0.265 nM | 0.00104 s⁻¹ | 3.92e+06 M⁻¹ s⁻¹ | 2.52 µg/mL | 3.11 µg/mL |  |
